The results in this text go back to patent US7803571B2, “Method for identifying IRS inhibitors or agonists” (Sanfoi-Aventis Deutschland GmbH, priority 2003, dated 2010).

For experiment [1], the target named is T1, p85α (Bos taurus, UniProt P23727).
T1 construct: GST (N, cleaved yes); made in house; host or cells: Escherichia coli BL21
Nature of the experiment: Surface plasmon resonance competition assay: binding of 100 nM p85α to immobilized IRS-1 peptides in the presence of competing soluble peptide. On the set-up: species or system bovine. The note with it: SPR response at equilibrium 440 s after injection, competitor identical to immobilized peptide. How it is done: The principle of operation of the BIAcore™ biosensor (Biacore, Freiburg, Germany) has been described previously (42). To avoid the interfering dimerization of the GST part of the fusion protein, it was cleaved with thrombin during the purification. Because of the known extremely fast association rates of SH2-domains to phosphopeptides the relative affinities were assessed by competition assay (43). Therefore, a constant concentration of p85α (100 nM) was incubated in running buffer (0.01 M Hepes pH 7.4, 0.15 M NaCl, 3 mM EDTA, 0.005% Surfactant P20 (HBS-EP)) with a variable concentration of the competitor peptide (50 nM-10 μM), which was identical to that bound on the CM5 sensor chip surface. After a 1 h preincubation at room temperature the various mixtures were then injected sequentially at a flow rate of 5 μl/min at 25° C. in HBS-EP buffer. The used peptides DDGYMPMSPGV (SEQ ID NO: 7), DDGpYMPMSPGV, DDGYMPMpSPGV and DDGpYMPMpSPGV, representing the amino acids 605 to 615 of rat IRS-1, were synthesized on an Applied Biosystems model 433 peptide synthesizer. All peptides were immobilized with a concentration of 5 mg/ml in 100 mM […] (NaOH pH 8.5) at 1 μl/min by standard amine coupling procedure as described by the manufacturer. Regeneration after each binding experiment was performed by injection of 6 M guanidine hydrochloride for 2 min. The kinetic analysis of the p85α with pY608 and […] interaction has been performed using the BIAevaluation 3.1 software (Biacore, Freiburg, Germany) and GraphPad Prism 3.0 (San Diego, Calif., USA).
The inventors then determined the relative binding affinity of this reaction by monitoring the binding of 100 nM p85α to the peptides pY608 (DDGpYMPMSPGV) and pY608-pS612 (DDGpYMPMpSPGV) in the presence of competing soluble peptides (FIGS. 6D, E, F). Half-maximum inhibitory concentrations (IC50) were obtained by plotting the SPR response 440 s after injection at equilibrium versus the log peptide concentration. […] Solubilized peptides inhibited binding of p85α to the immobilized peptides at micromolar concentrations. […] In order to identify additional PKC-ζ phosphorylation sites on rIRS-1^449-664 that might promote the inhibition of insulin-stimulated tyrosine phosphorylation in the in vitro system, rIRS-1^449-664 was incubated with PKC-ζ and separated by SDS-PAGE. Phosphorylated rIRS-1^449-664 was digested with trypsin and extracted from the gel. The peptides generated by digestion were resolved by two dimensional HPLC and the content of radioactivity in the fractions was monitored by Cerenkov counting. […] To separate comigrating peptides, radioactive fractions of each peak were pooled according to the elution profile and subjected to reversed phase (RP)-HPLC (FIG. 7B). […]
(In general: SPR reads the build-up and loss of mass on a sensor chip optically.)

The target in experiment [2] is T2, insulin receptor (Rattus norvegicus, UniProt P15127).
T2 construct: from tissue; host or cells: rat liver
T2 sequence (P15127 27-759 limits assumed): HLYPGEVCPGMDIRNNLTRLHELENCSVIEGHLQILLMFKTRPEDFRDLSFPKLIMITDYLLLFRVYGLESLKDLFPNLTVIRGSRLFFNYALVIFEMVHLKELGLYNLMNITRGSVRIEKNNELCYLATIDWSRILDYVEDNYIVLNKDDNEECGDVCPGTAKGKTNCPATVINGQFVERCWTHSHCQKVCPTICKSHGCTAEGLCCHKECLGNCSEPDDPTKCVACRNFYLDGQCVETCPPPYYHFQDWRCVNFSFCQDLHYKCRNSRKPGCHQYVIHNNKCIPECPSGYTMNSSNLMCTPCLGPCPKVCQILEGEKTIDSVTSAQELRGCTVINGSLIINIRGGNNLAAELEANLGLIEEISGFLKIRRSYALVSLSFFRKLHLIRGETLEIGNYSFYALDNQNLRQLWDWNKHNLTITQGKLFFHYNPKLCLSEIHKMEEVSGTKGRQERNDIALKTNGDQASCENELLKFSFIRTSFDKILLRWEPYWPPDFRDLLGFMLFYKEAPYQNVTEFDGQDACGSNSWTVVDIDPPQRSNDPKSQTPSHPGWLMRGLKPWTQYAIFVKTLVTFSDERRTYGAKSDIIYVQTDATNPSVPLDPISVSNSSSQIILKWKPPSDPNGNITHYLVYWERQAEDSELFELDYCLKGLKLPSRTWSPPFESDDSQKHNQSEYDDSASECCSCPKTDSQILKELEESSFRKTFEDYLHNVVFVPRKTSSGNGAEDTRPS
The experiment is described as follows: In vitro phosphorylation assay: tyrosine phosphorylation of rIRS-1^449-664 by insulin receptor. The class given is biochemical. How it is done:
Rat liver was rapidly removed, immediately frozen in liquid nitrogen and processed as described (41). Briefly, 3.5 vol/wt of an ice-cold buffer consisting of 50 mM Hepes (pH 7.4), 1% Triton X-100 and 2× Complete Protease Inhibitors was added and the liver was homogenized using an Ultraturrax and a Potter-Elvehjem homogenizer, followed by centrifugation at 10,000×g for 10 min at 4° C. The resultant supernatant was slowly stirred at room temperature for 60 min, then again centrifuged at 100,000×g for 90 min at 4° C. The supernatant was then applied to an agarose-bound wheat germ agglutinin (WGA) column. The column was washed with 50 mM Hepes (pH 7.4), 0.1% Triton X-100, and bound glycoproteins were eluted from the WGA column with this buffer containing 0.3 M N-acetylglucoseamine.
For rIRS-1^449-664 phosphorylation by insulin receptor, […] of the WGA-purified glycoprotein fraction was preincubated for 30 min at 30° C. with 100 nM of insulin in a phosphorylation buffer containing 20 mM Hepes (pH 7.4), 1 mM DTT, 10 mM MgCl2, 100 μg/ml bovine serum albumin, 0.2 mM Na3VO4, 1.7 mM CaCl2, 0.6 mg/ml phosphatidylserine, and 0.5 μg/ml okadaic acid. Autophosphorylation was initiated by the addition of ATP at a concentration of 50 μM and continued for 10 min at 30° C. Substrate phosphorylations were initiated by addition of equal volumes of […] (1 μg) with or without pre-treatment (30 min) by the PKC isoforms in the same buffer in the presence of 50 μM ATP and was allowed to proceed for 10 min at 30° C. in a final volume of 50 μl. The reaction was terminated by the addition of 6× sample buffer (0.35 M Tris-HCl (pH 6.8), 10.28% (w/v) SDS, 36% (v/v) glycerol; 0.6 M DTT, 0.012% (w/v) bromphenol blue) and boiling for 5 min. Proteins were separated by SDS-PAGE and analyzed by immunodetection with an anti-phosphotyrosine antibody after transfer to nitrocellulose. Serine/threonine phosphorylation of rIRS-1^449-664 by different PKC isoforms was assessed by incubating 1 μg rIRS-1^449-664 with 0.5 μg PKC-rb or PKC-ζ in phosphorylation buffer for 30 min at 30° C. in the presence of 50 μM ATP plus 2 μCi [γ-^32P]ATP in a volume of 20 μl. Proteins were resolved by SDS-PAGE and the stained and dried gels were subjected to autoradiography. The extent of phosphate incorporation was determined by Cerenkov counting of excised fragments.
Proteins were separated by SDS-PAGE using 8-18% gradient gels followed by transfer to nitrocellulose in a semi-dry blotting apparatus. […] All blots were quantified using the Lumilmager software. Significance of reported differences was evaluated by using the null hypothesis and t statistics for unpaired data. […]

Experiment [3] concerns the target T1, p85α. The experiment is described as follows: GST pull down assay: interaction of rIRS-1^449-664 with p85α. The format is binding, bovine. The note with it: for p85α binding after PKC-ζ treatment, % of control: insulin-stimulated control value set as 100%, n=3. How it is done:
In vitro phosphorylated rIRS-1^449-664 was incubated with glutathione sepharose beads on a rotator for 1 h at 4° C. Pellets were washed three times with binding buffer (50 mM Tris (pH 7.4), 150 mM NaCl, 1% (v/v) Nonidet P-40, 1 mM EDTA, 1 mM NaF, 1 mM Na3VO4). Then 0.5 μg recombinant p85α was added and incubation was continued for 2 h at 4° C. After three times washing, the bound proteins were eluted with 20 μl of 2× sample buffer and separated by SDS-PAGE.
Proteins were separated by SDS-PAGE using 8-18% gradient gels followed by transfer to nitrocellulose in a semi-dry blotting apparatus. The membrane was then blocked 60 min in Tris-buffered saline containing 0.05% Tween 20 and 1% BSA or 5% non fat dry milk and probed with appropriate antibodies (anti-IRS-1, anti-pTyr, anti-p85α). After extensive washing, the membranes were incubated with horseradish peroxidase-conjugated secondary antibodies, again washed and then the protein bands were visualized by the enhanced chemiluminescence (ECL) method on a Lumilmager workstation (Boehringer, Mannheim, Germany). All blots were quantified using the Lumilmager software. Significance of reported differences was evaluated by using the null hypothesis and t statistics for unpaired data. A p value less than 0.05 was considered to be statistically significant.

The mark [4] stands for this setting: read-out: IC50, inhibition of p85α binding by soluble peptide, two site competition fit, first value.
[5] abbreviates: read-out: IC50, inhibition of p85α binding by soluble peptide, two site competition fit, second value.

Like-named read-outs stand apart in the source and are kept apart here. Square brackets hold non-standard residues; d marks the D form. Peptide text beside a SMILES is read from it. pY = N[C@@H](Cc1ccc(OP(=O)(O)O)cc1)C(=O)O; pS = N[C@@H](COP(=O)(O)O)C(=O)O

T1 sequence (P23727 whole entry): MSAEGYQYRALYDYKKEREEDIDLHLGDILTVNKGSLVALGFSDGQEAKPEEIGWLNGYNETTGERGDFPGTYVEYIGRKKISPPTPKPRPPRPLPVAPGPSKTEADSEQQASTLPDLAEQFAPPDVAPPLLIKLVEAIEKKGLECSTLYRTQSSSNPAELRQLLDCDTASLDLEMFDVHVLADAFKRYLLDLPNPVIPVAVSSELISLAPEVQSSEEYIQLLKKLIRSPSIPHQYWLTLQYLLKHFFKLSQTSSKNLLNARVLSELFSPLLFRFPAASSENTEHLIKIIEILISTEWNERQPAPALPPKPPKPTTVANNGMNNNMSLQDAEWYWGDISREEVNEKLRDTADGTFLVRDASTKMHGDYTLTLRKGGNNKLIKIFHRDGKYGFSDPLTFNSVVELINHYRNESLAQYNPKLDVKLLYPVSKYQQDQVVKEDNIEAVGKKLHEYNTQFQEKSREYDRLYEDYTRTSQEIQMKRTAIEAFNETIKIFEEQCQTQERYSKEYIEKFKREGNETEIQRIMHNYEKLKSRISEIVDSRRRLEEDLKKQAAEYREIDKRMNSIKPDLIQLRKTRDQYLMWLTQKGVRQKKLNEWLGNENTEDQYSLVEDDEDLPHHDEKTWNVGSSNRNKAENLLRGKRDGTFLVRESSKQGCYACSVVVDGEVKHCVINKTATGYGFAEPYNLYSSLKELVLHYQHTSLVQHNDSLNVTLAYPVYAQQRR

As a reminder, the IC50 is the concentration at which inhibition is half-maximal. As for `CSCC[C@H](NC(=O)[C@@H]1CCCN1C(=O)[C@H](CCSC)NC(=O)[C@H](Cc1ccc(OP(=O)(O)O)cc1)NC(=O)CNC(=O)[C@H](CC(=O)O)NC(=O)[C@@H](N)CC(=O)O)C(=O)N[C@@H](COP(=O)(O)O)C(=O)N1CCC[C@H]1C(=O)NCC(=O)N[C@H](C(=O)O)C(C)C` [pY608-pS612, DDGpYMPMpSPGV] (H-DDG[pY]MPM[pS]PGV-OH), the IC50 came to 0.15 µM in experiment [1] (setting [4]) and 2.88 µM in experiment [1] (setting [5]). Taken in the same sequence, the figures for `CSCC[C@H](NC(=O)[C@@H]1CCCN1C(=O)[C@H](CCSC)NC(=O)[C@H](Cc1ccc(OP(=O)(O)O)cc1)NC(=O)CNC(=O)[C@H](CC(=O)O)NC(=O)[C@@H](N)CC(=O)O)C(=O)N[C@@H](CO)C(=O)N1CCC[C@H]1C(=O)NCC(=O)N[C@H](C(=O)O)C(C)C` [pY608, DDGpYMPMSPGV] (H-DDG[pY]MPMSPGV-OH; N-terminus and C-terminus assumed) were 0.26 µM and 16.6 µM.

B1: rIRS-1^449-664: glutathione S-transferase (GST) fusion protein containing the amino acids 449-664 of rat IRS-1 (SEQ ID NO: 17) (protein)
chain: PPARGEEELSNYICMGGKGASTLTAPNGHYILSRGGNGHRYIPGATMGTSPALTGDEAAGAADLDNRFRKRTHSAGTSPTISHQKTPSQSSVVSIEEYTEMMPAAYPPGGGSGGRLPGYRHSAFVPTHSYPEEGLEMHHLERRGGHHRPDSSNLHTDDGYMPMSPGVAPVPSNRKGNGDYMPMSPKSVSAPQQIINPIRRHPQRVDPNGYMMMSPS
modifications: left off: a dimerising Fc or GST
For B1, the “Insulin-stimulated tyrosine phosphorylation, stimulation over basal” value in experiment [2] (WGA-purified insulin receptor, 100 nM insulin, n=10) is listed as 8.8±1.1 fold. The “Reduction of tyrosine phosphorylation by IR after PKC-ζ pretreatment” value in experiment [2] (wild type and mutant fusion proteins as substrate, relative to insulin-stimulated control) is reported as 30-40%. The “Interaction of p85α with the tyrosine phosphorylated fusion protein” value in experiment [3] (after insulin-stimulated tyrosine phosphorylation by IR) was “significant increase”.

B2: S612A: serine 612 to alanine mutant of rIRS-1^449-664 GST fusion protein (protein, UniProt P35570 449-664, looked up, variant S612A)
chain: PPARGEEELSNYICMGGKGASTLTAPNGHYILSRGGNGHRYIPGATMGTSPALTGDEAAGAADLDNRFRKRTHSAGTSPTISHQKTPSQSSVVSIEEYTEMMPAAYPPGGGSGGRLPGYRHSAFVPTHSYPEEGLEMHHLERRGGHHRPDSSNLHTDDGYMPMAPGVAPVPSNRKGNGDYMPMSPKSVSAPQQIINPIRRHPQRVDPNGYMMMSPS
modifications: GST fusion
notes: serine 612 to alanine mutant of rIRS-1^449-664 GST fusion protein
In the case of B2, the “p85α binding after PKC-ζ treatment, % of control” value in experiment [3] is reported as 28±3 % of control.

B3: S570A: serine 570 to alanine mutant of rIRS-1^449-664 GST fusion protein (protein, UniProt P35570 449-664, looked up, variant S570A)
chain: PPARGEEELSNYICMGGKGASTLTAPNGHYILSRGGNGHRYIPGATMGTSPALTGDEAAGAADLDNRFRKRTHSAGTSPTISHQKTPSQSSVVSIEEYTEMMPAAYPPGGGSGGRLPGYRHAAFVPTHSYPEEGLEMHHLERRGGHHRPDSSNLHTDDGYMPMSPGVAPVPSNRKGNGDYMPMSPKSVSAPQQIINPIRRHPQRVDPNGYMMMSPS
modifications: GST fusion
notes: serine 570 to alanine mutant of rIRS-1^449-664 GST fusion protein
Consider B3, for which the “p85α binding after PKC-ζ treatment, % of control” value in experiment [3] is reported as 43±4 % of control.
